Measured values taken from patent publication US20250270296A1 (ACADEMIA SINICA, published 2025).
Where a chain is given by its changes, count along the chain named.

B1: RBD-chAb-1 (antibody, V domains shown)
VH: EVQLQQSGPQLVRPGASMKISCKASGYSFTTYWMHWVKQRPGQGLQWIGMIDPSDSETRLNQKFKDKATLTVDKSSSTAYMQLSSPTSEDSAVYYCARDFDYDRTMDYWGQGTSVTVSS
VL: DIVMSQSPSSLAVSVGEKVTMSCKSSQSLLFSSSQKNYLAWYQQKAGQSPKLLIFWASTRESGVPDRFTGSGSGTDFTLTISSVKAEDLAIYYCKQYYKYPLTFGAGTKLDIK
B2: RBD-chAb-15 (antibody, V domains shown)
VH: EVQLEESGPGLVQPSQSLSITCTVSDFSLTTYGVHWVRQSPGKGLEWLGVIWSGGSTDYNAAFISRLSISKDNSKSQVFFKMNSLQTNDTAIYYCARMGDGYYVGAMDYWGQGTSVTVSS
VL: DIQLTQSPAILSVSPGERVSFSCRASQSIGTSIHWYQQRTNGSPRHLIKYASESISGIPSRFSGSGSGTDFTLTINGVESEDIADYYCQQGHNWPLTFGAGTKLDIK
B3: RBD-chAb-28 (antibody, V domains shown)
VH: QVQLQQPGTELVMPGASVKMSCKASGYTFTDYYLHWMKQRPGQGLEWIGAIDSSDSYTDYNQNFKGKATLTVDESSSTAYMHLSSLTSEDSAVYYCARGKDAYDRRPWFAYWGQGTLVTVSA
VL: DIQMTQTTSSLSASLGDRVTISCSASQGIRYYLNWYQQKPDGTVKLLIYYTSNLHSGVPSRFSGSGSGTDYSLTISNLEPEDIATYYCQQYNKLPYTFGGGTKLDIK
B4: RBD-chAb-45 (antibody, V domains shown)
VH: EVQLQQSGPELVKPGASVKISCKTSGYTFTEYTIYWVKQSLGKSLEWIGGNNPNNDDTTYKQFFKGKATLTVDKSSSTAYMELRSLTSEDSAVYYCARDGYPYYYALDFWGQGTSVTVSS
VL: DILMTQSQKFMSTSVGDRVSVTCKSSQNVGTNVAWYQQKPGQSPKALIYSASYRYSGVPDHFTGSGSGTDFTLTISNVQSADLAEYFCQQYNNYPWTFGGGTKLDIK
B5: RBD-chAb-51 (antibody, V domains shown)
VH: B4 VH with V18A, I34M, L41H, N51I, D56G, K61N, F63T, Y103F, F109Y, T114I
VL: DIVMTQSQKFMSTSVGDRVSVTCKARQIVGTNVAWYQQKPGQSPKALIYSASYRYSGVPDRFTGSGSGTDFTLTITNVHSEDLAEFFCHQYNSYPWTFGGGTKLDIK

Tests used:
[1] = biological target: SARS-CoV-2 S protein, full length, wild type (on pseudovirus, authentic virus hCoV-19/Taiwan/4/2020 (SARS-CoV-2, UniProt P0DTC2 14-1273)); assay: cell-based or functional assay
[2] = biological target: SARS-COV-2 RBD-His protein (SARS-CoV-2, UniProt P0DTC2 319-541)

| Binder | PRNT50 [1] | pseudovirus neutralization assay IC50 [1] | further results |
| --- | --- | --- | --- |
| B1 | < 36 ng/mL | – | – |
| B2 | < 36 ng/mL | – | – |
| B3 | – | 8.75 ng/mL | – |
| B4 | – | 2.3 ng/mL | Kd [2]: 0.282 nM; koff [2]: 0.000282 s⁻¹; kon [2]: 997000 M⁻¹ s⁻¹ |
| B5 | – | 0.98 ng/mL | – |
